Assay results from US20250340631A1.

Assays:
human CLDN18.2 (human) [1] = experiment: competition FACS on HEK293/hCLDN18.2 cells; competitor 10 nM biotinylated PR000400; isotype is the reference of the formula
human CLDN18.2 (human) [2] = experiment: competition FACS on HEK293/hCLDN18.2 cells; competitor 200 nM biotinylated PR004549; isotype is the reference of the formula
[3] = biological target: Biotinylated murine CD3E&D (murine) (UniProt P22646); experiment: BLI (Octet), biotinylated CD3 on SA sensor, 1:1 global fit
Biotinylated murine CD3E&D (murine), sequence (P22646 22-108, chain 1 of 2): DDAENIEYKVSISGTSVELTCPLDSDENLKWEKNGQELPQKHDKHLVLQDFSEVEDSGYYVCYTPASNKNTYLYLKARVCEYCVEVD
Biotinylated murine CD3E&D (murine), sequence (P04235 22-105, chain 2 of 2, further chain): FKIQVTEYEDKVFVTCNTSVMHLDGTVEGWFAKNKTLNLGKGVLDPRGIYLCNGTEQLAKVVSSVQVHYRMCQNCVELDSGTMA

Row | Substance | Maximum inhibition rate (%) (human CLDN18.2 (human) [1]) | Maximum inhibition rate (%) (human CLDN18.2 (human) [2]) | Kd [3] | koff [3] | kon [3]
1 | Iso hIgG1 (CrownBio, C0001-4) (antibody) | 0% | 0% | – | – | –
2 | anti-CD3e 48-2B (santa cruz biotechnology, SC-1174) (antibody) | – | – | 0.171 nM | 0.000137 s⁻¹ | 803000 M⁻¹ s⁻¹
